These results are taken from patent US20250270304A1 (PHENOMIC AI, published 2025).

Assay [1] concerns the target T1, Latent Activin A (human, UniProt P08476 21-426, limits assumed).
T1 construct: also called INHBA latent
T1 sequence: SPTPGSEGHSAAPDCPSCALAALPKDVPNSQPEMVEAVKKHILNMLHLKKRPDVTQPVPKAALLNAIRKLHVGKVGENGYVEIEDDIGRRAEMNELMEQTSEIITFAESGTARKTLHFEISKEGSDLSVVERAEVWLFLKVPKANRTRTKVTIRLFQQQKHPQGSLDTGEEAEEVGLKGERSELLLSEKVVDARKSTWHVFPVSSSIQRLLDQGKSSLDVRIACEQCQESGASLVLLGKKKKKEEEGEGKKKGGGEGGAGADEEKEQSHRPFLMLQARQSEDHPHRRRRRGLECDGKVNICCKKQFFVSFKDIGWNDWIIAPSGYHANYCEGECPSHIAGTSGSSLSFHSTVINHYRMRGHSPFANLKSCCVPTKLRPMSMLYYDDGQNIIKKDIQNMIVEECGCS
The assay can be described thus: ELISA, coated antigen, OD450.

In assay [2] the target is T2, Mature Activin A (human, UniProt P08476 311-426).
T2 construct: also called active Activin A; INHBA mature
T2 sequence: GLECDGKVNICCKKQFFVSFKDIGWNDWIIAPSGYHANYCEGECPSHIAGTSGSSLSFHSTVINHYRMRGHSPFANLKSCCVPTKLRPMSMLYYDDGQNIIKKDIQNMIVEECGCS
The assay can be described thus: ELISA, coated antigen, OD450.

For assay [3], the target named is T3, Inhibin A (Homo sapiens (Human), UniProt P05111 233-366; P08476 311-426).
T3 sequence 1: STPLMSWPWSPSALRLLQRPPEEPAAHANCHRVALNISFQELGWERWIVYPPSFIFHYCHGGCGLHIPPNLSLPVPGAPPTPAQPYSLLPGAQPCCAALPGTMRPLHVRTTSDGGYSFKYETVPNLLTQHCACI
T3 sequence 2: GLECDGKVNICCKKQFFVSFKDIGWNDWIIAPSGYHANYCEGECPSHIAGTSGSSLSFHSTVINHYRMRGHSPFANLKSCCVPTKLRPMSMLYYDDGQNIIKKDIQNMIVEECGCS
The assay can be described thus: ELISA, coated antigen, OD450.

Assay [4] concerns the target T1, Latent Activin A. The assay can be described thus: ELISA dose-response, coated antigen. How it is done:
(§1) Antibodies were re-expressed in 40 mL cultures of Expi293 cells and purified using protein G magnetic sepharose beads (Cytiva, Marlborough, MA) to provide larger quantities for secondary screening. Secondary screening included dose responses in both functional assays described above (SMAD nuclear localization and fibroblast activations assays) as well as in binding assays to the same antigens listed in Table 3. Plates were coated with 25 μL of 3 μg/mL antigen in 384-well Maxisorp plates overnight at 4° C. with agitation. The next day, the samples in the plates were blocked with 70 μL blocking buffer (PBS+1% BSA+0.1% Tween-20) for 2 hours at room temperature. Plates were then washed three times with 100 μL of wash buffer (PBS+0.1% Tween-20). Primary antibodies in Expi293 expression medium were diluted 1:3 in blocking buffer, 25 μL added per well, and the plates were incubated for an hour at room temperature with agitation. Plates were then washed three times and 25 μL of secondary antibody (goat anti-Human IgG, HRP conjugated; Jackson Immunoresearch) diluted 1:5000 in blocking buffer was added for 30 minutes at room temperature. The wells in the plates were washed six times with wash buffer and TMB substrate was added followed by 1 M H3PO4.

The target of assay [5] is T2, Mature Activin A. The assay can be described thus: ELISA dose-response, coated antigen. The method, then:
as §1
On the technique in general: In an ELISA, binding on a coated surface is turned into a signal by an enzyme label.

Assay [6] deals with T4, Activin B (Homo sapiens (Human), UniProt P09529 293-407).
T4 construct: also called Mature Activin B; mature Activin B
T4 sequence: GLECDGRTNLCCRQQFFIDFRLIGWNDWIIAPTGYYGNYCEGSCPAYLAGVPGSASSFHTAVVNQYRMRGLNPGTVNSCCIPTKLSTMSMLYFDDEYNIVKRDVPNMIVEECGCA
The assay can be described thus: ELISA, coated antigen, OD450; secondary screen, single OD 450 reading as fold over negative control; below the 1.40-fold cut-off, so not a binder. The method, then: as §1

In assay [7] the target is T1, Latent Activin A. The assay can be described thus: ELISA, coated antigen, OD450; negative control antibody. The method, then: as §1
The target in assay [8] is T2, Mature Activin A. The assay is described as above. How it is done: as §1
For assay [9], the target named is T4, Activin B. The assay is described as above. How it is done: as §1
The target in assay [10] is T3, Inhibin A. Described as above. How it is done: as §1
In assay [11] the target is T3, Inhibin A. The assay can be described thus: ELISA dose-response, coated antigen (row 'Inhibin'). How it is done: as §1
Assay [12] has as its target T4, Activin B. The assay can be described thus: ELISA dose-response, coated antigen; dose-response ELISA, 1:3 dilutions from 133 nM; weak binding within the tested range. How it is done: as §1
In assay [13] the target is T4, Activin B. The assay can be described thus: ELISA, coated antigen, OD450; secondary screen, single OD 450 reading as fold over negative control; below the 1.40-fold cut-off. How it is done:
as §1

A further assay has as its target T5, Inhibin B (Homo sapiens (Human), UniProt P05111 233-366; P09529 293-407).
T5 sequence 1: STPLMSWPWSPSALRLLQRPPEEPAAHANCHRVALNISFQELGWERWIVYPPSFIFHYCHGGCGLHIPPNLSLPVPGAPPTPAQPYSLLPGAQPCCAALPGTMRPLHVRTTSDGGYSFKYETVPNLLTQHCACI
T5 sequence 2: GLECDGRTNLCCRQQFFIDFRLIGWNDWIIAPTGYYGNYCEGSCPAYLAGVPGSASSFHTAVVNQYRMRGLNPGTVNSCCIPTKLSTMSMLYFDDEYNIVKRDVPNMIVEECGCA
The assay can be described thus: the assays described above.

B1: AB342 (antibody, IgG1, V domains shown)
VH: EVQLVESGGGLVQPGGSLRLSCAASGFDFGEHWMSWVRQAPGKGLELVASIKGDASDTYYPDSVKGRFTISRDNAKNSLYLQMNSLRAEDTAVYYCVKDLSKQWLGIDYWGQGTLVTVSS
VL: DIVMTQSPLSLPVTPGEPASISCRSSQSLLHSNEKNYLHWYLQKPGQSPQLLIYDASKRASGVPDRFSGSGSGTDFTLKISRVEAEDVGVYYCVQDLHTPFTFGGGTKVEIK
The EC50 is the concentration giving half of the maximal effect. As to B1, the “fold-change of OD 450 over negative control (BSA)” value (“fold-change” for short) came to 7 fold with Latent Activin A [1], 7.81 fold with Mature Activin A [2], 0.36 fold with Inhibin A [3] and 0.43 fold with Activin B [6]. Moreover, the EC50 with Latent Activin A [4] was 48.6 nM; with Mature Activin A [5], 4.89 nM.

B2: Control 3 (antibody, human IgG1, kappa, V domains shown)
VH: QVTLRESGPALVKPTQTLTLTCTFSGFSLSTSGMSVGWIRQPPGKALEWLADIWWDDKKDYNPSLKSRLTISKDTSKNQVVLKVTNMDPADTATYYCARSMITNWYFDVWGAGTTVTVSS
VL: DIQMTQSPSTLSASVGDRVTITCKCQLSVGYMHWYQQKPGKAPKLLIYDTSKLASGVPSRFSGSGSGTEFTLTISSLQPDDFATYYCFQGSGYPFTFGGGTKLEIKR
notes: Negative control antibody; also called palivizumab
For the molecule B2, the binding result in the assay with Latent Activin A [7], with Mature Activin A [8], with Activin B [9] and with Inhibin A [10] was “no binding” throughout.

B3: Control 2 (antibody, human IgG4 S228P, kappa, V domains shown)
VH: QVQLQESGPGLVKPSETLSLTCTVSGGSFSSHFWSWIRQPPGKGLEWIGYILYTGGTSFNPSLKSRVSMSVGTSKNQFSLKLSSVTAADTAVYYCARARSGITFTGIIVPGSFDIWGQGTMVTVSS
VL: not shown
notes: also called garetosmab; Garetosmab
In the case of B3, the “fold-change” value with Latent Activin A [1] turned out to be 21.6 fold; with Mature Activin A [2], 21 fold; with Inhibin A [3], 15.9 fold; in the assay with Activin B [13], 0.71 fold. For the same molecule, the EC50 is 0.04 nM in the assay with Latent Activin A [4], 0.07 nM with Mature Activin A [5], 2.08 nM with Inhibin A [11] and 11.2 nM with Activin B [12].

B4: Control 1 (antibody, V domains shown)
VH: QVQLVQSGAEVKKPGASVKVSCKASGYTFTSYGLSWVRQAPGQGLEWMGWIIPYNGNTNSAQKLQGRVTMTTDTSTSTAYMELRSLRSDDTAVYFCARDRDYGVNYDAFDIWGQGTMVTVSS
VL: not shown
notes: also called AMGA1; Amga1
B4: the binding result with Inhibin B was “no binding”. The “fold-change” value came to 18.7 fold with Latent Activin A [1], 16.3 fold with Mature Activin A [2], 11.7 fold in the assay with Inhibin A [3] and 0.57 fold with Activin B [13]. Moreover, the values for the EC50 with Latent Activin A [4], with Mature Activin A [5] and in the assay with Inhibin A [11] were 0.03 nM, 0.03 nM and 0.02 nM, respectively.
